The data set deals with the molecule itself. Briefly: SEC; Superdex 75 HR 30/10; Utr-SR1 in 20 mM Tris pH 8.0, 50 mM NaCl; Dys-SR1 in PBS; no DTT added.

This is an account of results in publication PMC3401230, “The Crystal Structures of Dystrophin and Utrophin Spectrin Repeats: Implications for Domain Boundaries” (PLoS ONE, 2012).

B1: Dystrophin N-terminal (repeat 1) spectrin repeat (domain or fragment, human, UniProt P11532 338-456, looked up)
chain: EVNLDRYQTALEEVLSWLLSAEDTLQAQGEISNDVEVVKDQFHTHEGYMMDLTAHQGRVGNILQLGSKLIGTGKLSEDEETEVQEQMNLLNSRWECLRVASMEKQSNLHRVLMDLQNQK
notes: dystrophin, human, residues 338-456 (first spectrin repeat); Without a reducing agent part of the protein is a dimer linked by a disulphide bond between C433 of each molecule; The model in PDB 3UUN holds residues 338-453 (monomer A) and 339-452 (monomer B); Tag and cleavage are told only as 'prepared in an equivalent manner' to Utr-SR1; also called Dys-SR1; source: E. coli BL21(DE3), purified in …
As to B1, the binding result is reported as “binds”.
